Legend:
c-Src SH2 = assay: SH2 binding enrichment of the phosphorylated peptide, bacterial display (enrichment ratio); higher = better substrate or ligand; peptides without Tyr show the background
SHP2-C SH2 = assay: as above
Grb2 SH2 = Grb2 SH2 (UniProt P62993); assay: as above
MERTK = MERTK (UniProt Q12866); assay: phosphorylation enrichment, bacterial display (enrichment ratio); higher = better substrate or ligand; peptides without Tyr show the background
Fyn = Fyn (UniProt P06241); assay: as above
AncSZ = assay: as above
c-Src = assay: as above
Fes = Fes (UniProt P07332); assay: as above
EPHB2 = EPHB2 (UniProt P29323); assay: as above
Jak2 = Jak2 (UniProt O60674); assay: as above
FGFR3 = FGFR3 (UniProt P22607); assay: as above
c-Abl (mouse) = assay: as above
Fer (mouse) = assay: as above
Hck = Hck (UniProt P08631); assay: as above
EPHB1 = EPHB1 (UniProt P54762); assay: as above
FGFR1 = FGFR1 (UniProt P11362); assay: as above
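For SH2 binding enrichment of the phosphorylated peptide, bacterial display in this document: peptide library displayed on the E. coli surface as eCPX fusions, selected cells deep-sequenced, score is each peptide's frequency after selection divided by its frequency in the input.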
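For phosphorylation enrichment, bacterial display in this document: 11-residue human phosphosite peptides and single-mutation variants displayed on the E. coli surface, counted by deep sequencing, each peptide's frequency after selection divided by its frequency in the unselected input library; frequency after pTyr selection over input frequency; kinase dosed for 20-30% of maximal phosphorylation in three min.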

Chain of MERTK (Q12866 whole entry, looked up): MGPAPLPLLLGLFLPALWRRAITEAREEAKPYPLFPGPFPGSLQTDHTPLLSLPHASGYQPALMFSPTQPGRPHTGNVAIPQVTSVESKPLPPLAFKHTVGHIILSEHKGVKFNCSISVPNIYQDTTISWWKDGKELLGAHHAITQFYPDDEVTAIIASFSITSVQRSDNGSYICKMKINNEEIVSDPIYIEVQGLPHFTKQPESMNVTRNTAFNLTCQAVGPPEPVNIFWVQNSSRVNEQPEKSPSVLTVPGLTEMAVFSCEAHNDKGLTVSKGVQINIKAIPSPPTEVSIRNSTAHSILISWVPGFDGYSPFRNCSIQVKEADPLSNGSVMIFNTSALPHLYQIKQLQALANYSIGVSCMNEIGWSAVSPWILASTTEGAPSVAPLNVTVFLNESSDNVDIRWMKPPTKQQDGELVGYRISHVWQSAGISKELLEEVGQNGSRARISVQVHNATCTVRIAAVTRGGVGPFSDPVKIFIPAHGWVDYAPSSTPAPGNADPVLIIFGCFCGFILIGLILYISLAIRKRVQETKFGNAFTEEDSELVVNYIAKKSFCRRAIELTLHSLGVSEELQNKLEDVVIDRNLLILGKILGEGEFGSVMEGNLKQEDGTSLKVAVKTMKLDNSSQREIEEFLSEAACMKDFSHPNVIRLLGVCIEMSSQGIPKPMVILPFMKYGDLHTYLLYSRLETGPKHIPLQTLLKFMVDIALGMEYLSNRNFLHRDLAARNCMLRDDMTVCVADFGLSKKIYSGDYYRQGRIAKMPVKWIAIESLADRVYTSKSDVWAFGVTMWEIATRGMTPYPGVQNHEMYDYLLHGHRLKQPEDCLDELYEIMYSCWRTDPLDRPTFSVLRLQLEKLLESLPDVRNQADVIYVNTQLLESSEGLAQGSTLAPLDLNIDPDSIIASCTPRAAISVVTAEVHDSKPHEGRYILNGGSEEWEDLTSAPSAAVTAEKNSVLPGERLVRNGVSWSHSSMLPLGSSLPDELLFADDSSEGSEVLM
Chain of FGFR3 (P22607 whole entry, looked up): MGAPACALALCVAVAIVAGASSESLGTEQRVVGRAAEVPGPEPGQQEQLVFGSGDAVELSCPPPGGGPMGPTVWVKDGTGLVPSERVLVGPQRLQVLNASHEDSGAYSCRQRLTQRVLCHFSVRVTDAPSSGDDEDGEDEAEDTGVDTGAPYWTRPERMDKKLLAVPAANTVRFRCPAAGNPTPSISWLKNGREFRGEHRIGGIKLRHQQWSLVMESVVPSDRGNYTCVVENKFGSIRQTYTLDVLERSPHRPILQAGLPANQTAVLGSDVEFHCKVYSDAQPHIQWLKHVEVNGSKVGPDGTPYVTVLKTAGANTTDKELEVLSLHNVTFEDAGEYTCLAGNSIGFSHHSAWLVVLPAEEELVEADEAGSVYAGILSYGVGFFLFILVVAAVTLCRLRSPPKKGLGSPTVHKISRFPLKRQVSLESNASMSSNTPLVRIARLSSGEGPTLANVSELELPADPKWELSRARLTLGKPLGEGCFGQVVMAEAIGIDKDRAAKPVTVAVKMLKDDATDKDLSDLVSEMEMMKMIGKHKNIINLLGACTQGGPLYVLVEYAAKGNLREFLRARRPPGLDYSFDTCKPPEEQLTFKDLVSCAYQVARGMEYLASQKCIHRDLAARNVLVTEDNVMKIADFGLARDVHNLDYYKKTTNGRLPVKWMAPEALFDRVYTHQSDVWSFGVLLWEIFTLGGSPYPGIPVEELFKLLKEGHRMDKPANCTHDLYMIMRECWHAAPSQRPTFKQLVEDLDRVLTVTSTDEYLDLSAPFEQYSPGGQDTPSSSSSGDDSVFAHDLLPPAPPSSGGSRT
Chain of FGFR1 (P11362 whole entry, looked up, the tested form may be a part): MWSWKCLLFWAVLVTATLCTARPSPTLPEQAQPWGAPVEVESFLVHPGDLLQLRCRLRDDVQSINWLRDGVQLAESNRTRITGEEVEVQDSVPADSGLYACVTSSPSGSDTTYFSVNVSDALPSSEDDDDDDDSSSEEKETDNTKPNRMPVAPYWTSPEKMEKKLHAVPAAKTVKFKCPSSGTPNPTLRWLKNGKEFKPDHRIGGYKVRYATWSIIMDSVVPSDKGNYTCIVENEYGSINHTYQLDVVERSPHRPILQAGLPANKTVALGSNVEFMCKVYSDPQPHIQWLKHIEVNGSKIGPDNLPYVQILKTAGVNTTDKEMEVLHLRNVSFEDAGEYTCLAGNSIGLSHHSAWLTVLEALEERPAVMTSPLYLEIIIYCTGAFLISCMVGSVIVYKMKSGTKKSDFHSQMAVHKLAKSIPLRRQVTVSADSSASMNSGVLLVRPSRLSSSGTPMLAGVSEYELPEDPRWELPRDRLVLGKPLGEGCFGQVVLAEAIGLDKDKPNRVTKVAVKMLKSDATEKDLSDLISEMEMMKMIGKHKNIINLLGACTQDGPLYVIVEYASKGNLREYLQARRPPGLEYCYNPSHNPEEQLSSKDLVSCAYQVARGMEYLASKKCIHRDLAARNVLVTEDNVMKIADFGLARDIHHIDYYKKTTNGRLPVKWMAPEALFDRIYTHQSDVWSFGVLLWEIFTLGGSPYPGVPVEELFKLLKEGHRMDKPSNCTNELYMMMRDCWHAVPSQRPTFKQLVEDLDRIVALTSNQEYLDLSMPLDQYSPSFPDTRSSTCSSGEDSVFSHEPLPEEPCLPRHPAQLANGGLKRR
Chain of Fyn (P06241 whole entry, looked up): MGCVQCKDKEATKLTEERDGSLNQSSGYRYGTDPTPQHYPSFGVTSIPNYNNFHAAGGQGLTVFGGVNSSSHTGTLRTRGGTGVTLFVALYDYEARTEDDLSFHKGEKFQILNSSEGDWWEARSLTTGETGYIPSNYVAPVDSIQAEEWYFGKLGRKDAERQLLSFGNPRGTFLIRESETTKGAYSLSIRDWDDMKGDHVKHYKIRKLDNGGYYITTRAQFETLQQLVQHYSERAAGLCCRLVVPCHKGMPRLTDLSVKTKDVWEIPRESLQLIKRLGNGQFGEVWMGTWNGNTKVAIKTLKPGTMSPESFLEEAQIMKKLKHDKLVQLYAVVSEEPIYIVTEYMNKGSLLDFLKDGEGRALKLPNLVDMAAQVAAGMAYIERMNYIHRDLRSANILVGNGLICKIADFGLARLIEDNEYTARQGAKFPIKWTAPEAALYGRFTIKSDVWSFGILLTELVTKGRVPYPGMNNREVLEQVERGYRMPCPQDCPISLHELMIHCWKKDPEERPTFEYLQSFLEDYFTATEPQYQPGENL
Chain of Fes (P07332 whole entry, looked up): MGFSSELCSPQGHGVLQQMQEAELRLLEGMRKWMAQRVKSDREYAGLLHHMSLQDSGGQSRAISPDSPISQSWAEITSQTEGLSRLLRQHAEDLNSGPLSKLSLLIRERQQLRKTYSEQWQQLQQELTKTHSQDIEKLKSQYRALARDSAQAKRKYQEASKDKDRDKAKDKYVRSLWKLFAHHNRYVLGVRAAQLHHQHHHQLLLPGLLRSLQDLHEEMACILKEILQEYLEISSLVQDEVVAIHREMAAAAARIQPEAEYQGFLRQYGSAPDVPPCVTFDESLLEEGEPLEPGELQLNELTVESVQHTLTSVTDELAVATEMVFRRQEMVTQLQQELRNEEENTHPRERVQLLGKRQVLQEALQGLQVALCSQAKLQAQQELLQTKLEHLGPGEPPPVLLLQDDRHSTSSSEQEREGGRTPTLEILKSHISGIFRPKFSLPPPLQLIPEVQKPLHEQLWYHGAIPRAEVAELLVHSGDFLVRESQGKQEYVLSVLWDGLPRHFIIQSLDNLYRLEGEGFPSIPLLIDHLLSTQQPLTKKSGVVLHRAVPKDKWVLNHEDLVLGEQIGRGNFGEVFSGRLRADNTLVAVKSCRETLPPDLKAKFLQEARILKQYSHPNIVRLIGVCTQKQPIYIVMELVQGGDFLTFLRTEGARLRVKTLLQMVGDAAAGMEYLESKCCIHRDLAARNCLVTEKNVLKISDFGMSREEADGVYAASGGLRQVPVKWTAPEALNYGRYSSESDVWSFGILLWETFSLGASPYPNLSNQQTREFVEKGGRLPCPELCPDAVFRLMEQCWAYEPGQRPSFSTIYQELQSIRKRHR
Chain of EPHB2 (P29323 whole entry, looked up): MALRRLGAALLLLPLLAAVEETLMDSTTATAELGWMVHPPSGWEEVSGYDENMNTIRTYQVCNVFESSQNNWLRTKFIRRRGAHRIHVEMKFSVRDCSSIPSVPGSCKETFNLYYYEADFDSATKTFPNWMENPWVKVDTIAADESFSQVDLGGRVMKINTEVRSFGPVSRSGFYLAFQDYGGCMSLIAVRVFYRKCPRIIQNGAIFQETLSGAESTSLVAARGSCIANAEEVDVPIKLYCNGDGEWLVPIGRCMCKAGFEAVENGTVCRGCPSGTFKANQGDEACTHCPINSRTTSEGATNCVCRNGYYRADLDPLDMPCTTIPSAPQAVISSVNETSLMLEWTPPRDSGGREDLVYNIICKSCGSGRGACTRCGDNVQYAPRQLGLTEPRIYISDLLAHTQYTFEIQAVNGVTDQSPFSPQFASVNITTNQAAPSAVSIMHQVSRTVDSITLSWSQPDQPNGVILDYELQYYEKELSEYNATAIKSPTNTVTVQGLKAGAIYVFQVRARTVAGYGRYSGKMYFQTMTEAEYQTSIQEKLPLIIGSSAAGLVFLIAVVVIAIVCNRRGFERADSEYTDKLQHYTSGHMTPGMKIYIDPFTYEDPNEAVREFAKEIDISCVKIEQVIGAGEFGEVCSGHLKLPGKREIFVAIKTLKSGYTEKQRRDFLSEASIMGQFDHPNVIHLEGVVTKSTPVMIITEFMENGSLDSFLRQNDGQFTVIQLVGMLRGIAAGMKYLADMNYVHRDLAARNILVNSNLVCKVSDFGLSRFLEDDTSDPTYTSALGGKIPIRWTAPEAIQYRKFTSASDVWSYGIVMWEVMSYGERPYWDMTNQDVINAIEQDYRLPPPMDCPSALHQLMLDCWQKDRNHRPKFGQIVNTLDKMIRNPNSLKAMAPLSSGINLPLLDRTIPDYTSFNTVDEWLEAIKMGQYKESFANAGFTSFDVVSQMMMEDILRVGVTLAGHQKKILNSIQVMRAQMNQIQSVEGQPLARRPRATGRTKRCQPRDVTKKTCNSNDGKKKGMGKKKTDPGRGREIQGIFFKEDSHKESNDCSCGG

Sequence	SH2 binding enrichment (c-Src SH2)	SH2 binding enrichment (SHP2-C SH2)	SH2 binding enrichment (Grb2 SH2)	phosphorylation enrichment (MERTK)	phosphorylation enrichment (Fyn)	phosphorylation enrichment (AncSZ)	phosphorylation enrichment (c-Src)	phosphorylation enrichment (Fes)	phosphorylation enrichment (EPHB2)	phosphorylation enrichment (Jak2)	phosphorylation enrichment (FGFR3)	phosphorylation enrichment (c-Abl (mouse))	phosphorylation enrichment (Fer (mouse))	phosphorylation enrichment (Hck)	phosphorylation enrichment (EPHB1)	phosphorylation enrichment (FGFR1)
GRKTLYSFFSP [UNG_Y8_Q4R]	1.17	0.978	1.57	12	1.13	0.529	1.9	0.825	0.603	0.91	0.641	0.56	3.82	2.26	0.709	0.571
GRLPEYNTPIA [CCDC151_Y542_R545P]	0.841	0.479	0.807	0.407	0.442	0.704	0.463	0.643	0.432	0.662	0.397	0.716	0.317	0.325	0.515	0.388
GSERRYSREGG [PTPRN2_Y139]	0.475	0.646	0.678	0.415	0.479	0.703	0.463	0.468	0.413	0.45	0.412	0.46	0.386	0.356	0.5	0.4
HDRGNYVQLNM [RECQL4_Y353_R355Q]	1.95	1.18	0.986	0.686	0.493	0.744	0.442	1.1	3.46	0.55	1.35	0.552	0.674	0.508	8.72	1.99
HFEFKYVINAI [MAOA_Y268_C266F_YF]	0.561	0.772	0.814	0.678	0.441	1.66	0.576	2.11	0.89	1.81	0.854	1.26	0.829	0.668	0.686	0.391
HFGNNYRDVLQ [MACC1_Y803_YF]	0.472	2.13	0.909	0.64	0.614	0.851	0.65	1.72	0.627	1.06	0.68	0.848	0.558	0.594	0.648	0.711
HGAKVYIDPFT [EPHB4_Y590_T587A]	0.592	0.668	0.712	0.535	0.792	0.986	0.713	1.04	0.975	0.761	0.912	0.831	0.715	0.792	1.08	1.46
HKLSYCEYDFE [BTK_Y40_Y40C]	0.914	0.68	1.3	0.535	1.68	1.78	2.46	1.76	1.14	1.29	1.34	0.871	0.687	0.746	0.857	0.762
HLQQSNLPRGT [TEX45_Y396_Y396N]	0.748	0.583	0.837	0.467	0.445	0.639	0.42	0.757	0.451	0.689	0.644	0.703	0.279	0.534	0.447	0.491
HNMPIYEGFAL [ACTA1_Y168_V165M_YF]	0.431	0.847	0.607	14.7	21.5	1.44	13.2	5.34	32.9	0.859	0.786	29.2	26.7	15.6	24.3	0.704
HNQDGYSYLSR [LDLR_Y845_P848L]	11.7	2.08	0.698	0.719	0.624	0.478	0.554	0.681	0.889	0.679	0.658	0.551	0.522	0.793	0.527	0.879
HRERPYGGGGG [FUS_Y526_R521H]	1.18	1.05	1.17	0.557	0.454	0.487	0.523	0.714	0.265	0.386	0.449	0.556	0.407	0.439	0.483	0.553
HSKGIYFVQLE [MGAT4B_Y262_Q257H_YF]	1.08	1.45	1.53	3.31	1.03	1.87	1.65	2.53	0.911	2.27	1.75	1.31	0.711	1.12	0.853	1.38
HVSISYDIPPT [GAB1_Y307]	0.702	0.548	0.688	6.11	0.645	1.33	0.478	1.24	1.18	0.826	1.01	0.735	0.732	0.644	0.522	0.677
HYEFKYVINAI [MAOA_Y268_C266F]	0.582	0.69	0.868	0.572	0.481	1.75	0.536	1.72	0.782	1.55	0.964	1.28	0.74	0.489	1.05	0.471

Now from value to sequence, other results behind:

SH2 binding enrichment (c-Src SH2)	SH2 binding enrichment (SHP2-C SH2)	SH2 binding enrichment (Grb2 SH2)	Sequence	phosphorylation enrichment (MERTK)	phosphorylation enrichment (Fyn)	phosphorylation enrichment (AncSZ)	phosphorylation enrichment (c-Src)	phosphorylation enrichment (Fes)	phosphorylation enrichment (EPHB2)	phosphorylation enrichment (Jak2)	phosphorylation enrichment (FGFR3)	phosphorylation enrichment (c-Abl (mouse))	phosphorylation enrichment (Fer (mouse))	phosphorylation enrichment (Hck)	phosphorylation enrichment (EPHB1)	phosphorylation enrichment (FGFR1)
0.442	0.476	0.742	GREAEYSEKHG [EPHB4_Y574_D576E]	0.368	0.354	0.681	0.396	0.697	0.487	0.59	0.544	0.631	0.398	0.444	0.514	0.418
0.49	0.788	1.05	GSETPYMDRTP [ESS2_Y335_V336M]	0.365	0.344	0.662	0.454	0.715	0.413	0.499	0.413	0.424	0.363	0.365	0.571	0.431
0.477	0.9	0.794	GSSEGYLHMVH [NIPBL_Y247_D246G]	0.419	0.368	0.616	0.403	0.679	0.427	0.617	0.474	0.491	0.424	0.396	0.333	0.388
0.45	0.556	0.907	GTAPSYGNPSS [CD19_Y378]	0.432	0.358	0.517	0.496	0.56	0.362	0.594	0.494	0.589	0.299	0.336	0.407	0.38
0.543	0.679	0.902	GTGTAYLCGVK [ALPL_Y117_A114G]	0.379	0.435	0.694	0.348	0.754	0.412	0.675	0.489	0.685	0.511	0.395	0.551	0.446
0.527	1.04	0.857	GYIISYREEEQ	0.539	0.546	1.79	0.516	2.14	0.599	1.53	0.586	0.909	0.596	0.473	0.48	0.532
0.584	0.772	1.04	HELYVYKSDEN [DOCK3_Y548_C550S]	0.487	0.849	1.7	0.917	2.14	0.912	1.75	1.32	1.19	0.879	0.835	1.28	0.684
0.788	1.62	1.21	HGTKVYIDPFT [EPHB4_Y590]	1.03	0.601	0.602	0.49	0.705	0.66	0.815	0.688	0.725	0.426	0.628	0.788	0.711
0.585	0.628	1.12	HHTDECEFDEL [TGM1_Y134_Y134C_YF]	0.471	0.488	1.07	0.727	1.1	0.426	1.05	0.545	0.858	0.463	0.586	0.423	0.605
0.483	0.535	0.692	HLELNYKEDEY [MME_Y502_Y497H]	0.396	0.514	1.32	0.418	0.994	0.535	1.06	0.611	0.62	0.344	0.382	0.562	0.487
0.591	0.554	0.732	HNLDYYKKTTN [FGFR3_Y648]	0.423	0.653	0.829	0.373	1.2	0.59	0.632	0.648	0.817	0.539	0.58	0.696	0.694
0.503	1.56	0.706	HNLFSYPTKFE [MYO3A_Y1396_H1400Y_YF]	0.569	0.565	0.869	0.703	1.29	0.507	1.44	0.752	0.881	0.562	0.684	0.474	0.671
1.31	0.657	0.757	HNLYSYPTKYE [MYO3A_Y1396_H1400Y]	14.8	5.43	2.65	2.62	0.958	16.7	0.606	0.683	2.34	17	8.88	10.6	0.699
0.594	0.99	1.12	HPWPQYTTRAP [FNDC1_Y1281]	0.546	0.554	0.628	0.561	0.603	0.594	0.846	0.54	0.697	0.454	0.572	0.316	0.421
0.367	0.661	0.862	HSLLQYGGSAN [ANK1_Y624_R619H]	0.386	0.427	0.579	0.357	0.481	0.583	0.394	0.531	0.472	0.447	0.505	0.421	0.316
0.539	1.22	0.806	HSSPVYVGRVV [TGM2_Y219_R214H]	1.5	3	1.85	1.57	1.97	1.47	1	1.24	1.17	1.63	6.86	2.08	1.37
0.546	0.773	0.833	HVIKFYGACSQ [RET_Y791_L790F]	0.545	0.759	1.5	0.564	1.75	0.851	1.3	1.08	1.4	0.576	0.779	0.956	0.871
0.723	0.928	0.716	HYPDVYAWEQL [ALX3_Y181_R183W]	3.27	8.69	1.14	5.25	1.31	0.865	0.847	1.16	0.404	13.2	4.12	0.913	1.19

— the supplement of paper PMC10065799, “High-throughput profiling of sequence recognition by tyrosine kinases and SH2 domains using bacterial peptide display” (eLife, 2023)
